Results: patent publication US20060141546A1, “Bacterial test method by glycated label binding” (priority 2002, published 2006)

Key:
[1] = test system: Escherichia Coli (E. Coli); test: Bacteria assay by binding of intestinal ALP (Example 1, FIG. 8, Table 1)
Method: (§1) Bacterial cells ([…] to 10^8 cells/mL) were washed twice with water after centrifugation to separate the cells into a packed pellet from supernatant liquid. The washed cells in pellet form were suspended in 40 μL water and 10 μL of aqueous bovine intestinal alkaline phosphatase (ALP) was added (2 μg or […]). The mixture was left at room temperature for 30 minutes and then centrifuged, after which the bacterial pellets were washed with water 4-5 times (50 μL). All the washing supernatants were combined. A blank without cells was diluted in the same way. The final pellets were suspended in 50 μl water and both supernatants and cell suspensions were assayed for detection of ALP binding using 2.5 μl of 0.005 M para-nitrophenol phosphate (PNPP) in Tris or EPPS buffer at pH 7.5. The hydrolysis of the substrate results in yellow (PNPP) or blue-green (BCIP) color that is directly proportional to the amount of ALP bound to the bacteria. Alkaline phosphatase (ALP) activity was tested using common substrates such as BCIP (bromo-chloro-indolyl-phosphate) forming a blue/green color in Tris buffer, pH 7.5. After 10 minutes at room temperature the samples were read in a plate reader (Biotek Powerwave Absorbance Reader) at a wavelength of 405 nm. The parallel set of bacteria was run without addition of ALP as controls.

[2] = test system: bacteria; test: Effect of divalent cations on ALP binding to bacteria (Example 7, Table 5, FIG. 12)
Method: Bacterial cells (1 to 4.5×10^7 cells/mL) were washed twice with water after centrifugation to separate cells into a packed pellet from the supernatant liquid. The washed cells in pellet form were suspended in 20 μL of EPPS buffer (50 mM at pH 8.0) and 30 μL of water. […]
The mixture of glycated protein and bacterial cells was left at 25° C. for 15 minutes. The mixture was then centrifuged at 30,000 rpm for 30 minutes after which the bacterial cells formed a pellet at the bottom of the tube and were washed with water 4-5 times (50 μL). Centrifugation allows separation of glycoprotein bound to the bacteria cells from unbound glycated protein(s).
After washing, the bacterial pellets were suspended in 50 μL of borate buffer (25 mM at pH 9.0). A 5 μL aliquot of the suspension was assayed for detection of ALP binding by adding 5 μL of para-nitrophenol phosphate (PNPP, 100 mM), 50 μL sodium borate buffer (25 mM at pH 9.0) and 140 μL of water. […] The color was read at 405 nm using an ELISA plate reader between 15-30 min; the absorbance is directly proportional to the amount of ALP bound to the bacteria cell.

[3] = test system: Klebsiella pneumoniae; test: ALP binding compared to E. coli (Table 1)
Method: as §1
(§2) The bacteria used to illustrate the invention represent the extremes of gram positive (S. facaelis) and gram negative (E. coli) bacteria. […] The nature of the difference in the cell walls is greatest between the gram negative and positive forms of bacteria.

[4] = test system: Diphtheroids (gnb); test: ALP binding compared to E. coli (Table 1)
Method: as §1, §2

[5] = test system: Serratia marcescens; test: ALP binding compared to E. coli (Table 1)
Method: as §1, §2

[6] = test system: Proteus mirabilis; test: ALP binding compared to E. coli (Table 1)
Method: as §1, §2

[7] = test system: Klebsiella oxytoca; test: ALP binding compared to E. coli (Table 1)
Method: as §1, §2

[8] = test system: Pseudomonas aeruginosa; test: ALP binding compared to E. coli (Table 1)
Method: as §1, §2

[9] = test system: Citrobacter koseri; test: ALP binding compared to E. coli (Table 1)
Method: as §1, §2

[10] = test system: Morganella morganii; test: ALP binding compared to E. coli (Table 1)
Method: as §1, §2

[11] = test system: Citrobacter freundii; test: ALP binding compared to E. coli (Table 1)
Method: as §1, §2

[12] = test system: Staphylococcus aureus (Sf) strains # 3 and #6; test: Bacteria assay by binding of intestinal ALP (Example 1, FIG. 8); conditions: gram positive, strains # 3 and #6, FIG. 8
Method: as §1

[13] = test system: E. coli; test: Membrane (Loprodyne) separation of bacteria bound ALP (Example 6, Table 4); type: binding
Method: Bacteria bound to alkaline phosphatase (ALP) can be separated using a membrane (low protein binding Nylon 66 Loprodyne) on backed microtiter plates (Nunc Nalge International).
The loprodyne-membrane-backed plates were treated with 1 or 2% detergent (Tween 20 or TritonX305) in water or buffers (TBS: Tris, 25 mM, pH 7.6 containing 150 mM NaCl or KCO3: 0.1M, pH 9.6) overnight at room temperature. Blocking solutions were vacuum filtered. […] The combined solution was incubated for 15 min at 37° C. on a shaker and then added to the loprodyne-membrane-backed plate.
The solution was vacuum filtered leaving bacteria adhered on the membrane and then washed twice with 2% Tween20 in water. To the washed membrane, 200 μl of H2O with 50 μl Glycine (0.05M, pH 10.4) and containing 1 mM PNPP were added and the color formed due to the bacteria bound ALP read at 405 nm.
The separation of E. Coli with bound ALP from unbound ALP is shown by a size exclusion membrane in Example 6 and by centrifugation in Examples 1-5. The size of E. Coli is 1×1×2 μm and any membrane, filter or device trapping particles of this size would be acceptable. These include microfluidic devices, filters, column chromatography and chromatography strips. The mass of E. Coli is 1.6×10^−12 gm/cell and any membrane, filter or device trapping a mass of this size would be also acceptable.

B1: ALP: bovine intestinal alkaline phosphatase, glycoprotein enzyme that binds bacteria and serves as label (protein, UniProt P19111 20-506, looked up)
Intestinal-type alkaline …: LVPVEEEDPAFWNRQAAQALDVAKKLQPIQTAAKNVILFLGDGMGVPTVTATRILKGQMNGKLGPETPLAMDQFPYVALSKTYNVDRQVPDSAGTATAYLCGVKGNYRTIGVSAAARYNQCKTTRGNEVTSVMNRAKKAGKSVGVVTTTRVQHASPAGAYAHTVNRNWYSDADLPADAQMNGCQDIAAQLVNNMDIDVILGGGRKYMFPVGTPDPEYPDDASVNGVRKRKQNLVQAWQAKHQGAQYVWNRTALLQAADDSSVTHLMGLFEPADMKYNVQQDHTKDPTLQEMTEVALRVVSRNPRGFYLFVEGGRIDHGHHDDKAYMALTEAGMFDNAIAKANELTSELDTLILVTADHSHVFSFGGYTLRGTSIFGLAPSKALDSKSYTSILYGNGPGYALGGGSRPDVNDSTSEDPSYQQQAAVPQASETHGGEDVAVFARGPQAHLVHGVEEETFVAHIMAFAGCVEPYTDCNLPAPTTATSIPD
ALP binding relative to E. coli ([1]; Escherichia coli): 100%
ALP binding to bacteria (ALP activity of suspended cells after ALP treatment and washings) ([1]; gram negative, strains # 9 and 14, FIG. 8): found to bind the ALP
O.D. at 405 nm, With ALP ([2]; No. cation): 0.30 O.D.
bacteria concentration at which ALP binding could be monitored ([2]; different strains of bacteria, 1 mM Zn^2+, FIG. 12): 10^5
ALP binding relative to E. coli [3]: 105%
ALP binding relative to E. coli [4]: 91%
ALP binding relative to E. coli [5]: 101%
ALP binding relative to E. coli [6]: 104%
ALP binding relative to E. coli [7]: 111%
ALP binding relative to E. coli [8]: 99%
ALP binding relative to E. coli [9]: 93%
ALP binding relative to E. coli [10]: 95%
ALP binding relative to E. coli [11]: 89%
ALP binding to bacteria (ALP activity of suspended cells after ALP treatment and washings) [12]: found to bind the ALP
Bacteria Binding to ALP (O.D. at 405 nm) ([13]; No Bacteria, ALP concentration 1.0 mU): 0.04 O.D.
Bacteria Binding to ALP (O.D. at 405 nm) ([13]; No Bacteria, ALP concentration 2.0 mU): 0.05 O.D.
Bacteria Binding to ALP (O.D. at 405 nm) ([13]; No Bacteria, ALP concentration 5.0 mU): 0.16 O.D.
Bacteria Binding to ALP (O.D. at 405 nm) ([13]; Plus Bacteria, ALP concentration 1.0 mU): 0.13 O.D.
Bacteria Binding to ALP (O.D. at 405 nm) ([13]; Plus Bacteria, ALP concentration 2.0 mU): 0.30 O.D.
Bacteria Binding to ALP (O.D. at 405 nm) ([13]; Plus Bacteria, ALP concentration 5.0 mU): 0.83 O.D.
